# Assay results from patent publication US20140364335A1, “METHOD FOR SCREENING FOR NRF1 REGULATOR” (Mochida Pharmaceutical Co., Ltd., priority 2012, published 2014).
# Where a SMILES comes first, the peptide text is derived from it. The star is where a group is joined. Cbz = O=C(OCc1ccccc1)*
# B1: PGC-1beta intron ARE (dsDNA)
# DNA 1: TTGATAGTGAGGGGAACATGCTGACTCAGCAGCTCCGAATAA
# DNA 2: TTATTCGGAGCTGCTGAGTCAGCATGTTCCCCTCACTATCAA
# B2: Lipin1 intron ARE (dsDNA)
# DNA 1: CACACCCTGCCCAGAGGCACACTTGCTGAGTCAGCACCCCGG
# DNA 2: CCGGGGTGCTGACTCAGCAAGTGTGCCTCTGGGCAGGGTGTG
# B3: Lipin1 promoter ARE (dsDNA)
# DNA 1: ACGCTCCTGCCGCTGAGCTGTGACTCAGCCAGAGAACTGAG
# DNA 2: CTCAGTTCTCTGGCTGAGTCACAGCTCAGCGGCAGGAGCGT
# Columns and labels:
# [1] = system: full-length mouse Nrf1 and luciferase fusion protein (mNrf1-Luc); experiment: Luciferase activity in Hepa1 cell line stably expressing mouse Nrf1-luciferase fusion protein (Nrf1 stabilization assay); type: cell-based; conditions: mNrf1-Luc stable Hepa1 cell lines, 10 μM MG-132, 4 hours, vs DMSO
# Description: (§1) Cloning of mouse Nrf1 cDNA was performed using a method known in the art (Zhang et al., Biochem. J. 399: 373-385. (2006)). An expression vector of full-length mouse Nrf1 and luciferase fusion protein (mNrf1-Luc) was prepared by ligating the sequence, which was amplified by the following primers: 5′-TAATACGACTCACTATAGGG-3′ (SEQ ID NO: 21) and 5′-CTTTATGTTTTTGGCGTCTTCCTTCCTCCGGTCCTTTG-3′ (SEQ ID NO: 22) using mouse Nrf1 cDNA sequence as a template, and the sequence, which was amplified by the following primers: 5′-CAAAGGACCGGAGGAAGGAAGACGCCAAAAACATAAAG-3′ (SEQ ID NO: 23) and 5′-GACTCTAGAATTACACGGCG-3′ (SEQ ID NO: 24) using pGL3-basic vector (Promega) as a template; and cloning the resulting sequence at a KpnI/XbaI site of pcDNA3.1/V5His B plasmid (Invitrogen). […]
# (§2) Cells of each cell line were seeded at a density of 5×10^4 cells per well in a 24-well plate, cultured overnight and treated with a solvent control, DMSO or 10 μM MG-132 (Peptide Institute) for 4 hours. Thereafter, the firefly luciferase activity was measured using dual luciferase kit (Promega) and a luminometer (Berthold).
# [2] = system: CNC-bZip domain-deficient mouse Nrf1 and luciferase fusion protein (mNrf1ΔCNC-bZip-Luc); experiment: Luciferase activity in Hepa1 cell line stably expressing CNC-bZip domain-deficient mouse Nrf1-luciferase fusion protein; type: cell-based; conditions: mNrf1ΔCNC-bZip-Luc stable Hepa1 cell lines, 10 μM MG-132, 4 hours, vs DMSO
# Description: as §1, §2
# MafG 1-123 homodimer = MafG 1-123 homodimer (UniProt O54790 O54790:1-123); experiment: EMSA; MafG homodimer; MARE-like site; conditions: tags: 6xHis; E. coli; chain copies: 2 (stated); label: 5' biotin (EMSA)
# Description: (§3) (A to C) Hepa1 cells were cotransfected with luciferase reporter constructs containing the AREs from the Lipin1 promoter (A), Lipin1 intron (B) or PGC-1β intron (C) together with or without the Nrf1 expression vector. The average values±S.D are shown, n=3. The vertical axis indicates relative luciferase units (RLU). The firefly luciferase activity in the absence of effector plasmids is set to 1. (D) The EMSA analysis was performed with biotin-labeled probes containing the AREs from the Nqo1 promoter, Lipin1 promoter, Lipin1 intron and PGC-1β intron regions. Recombinant MafG and/or Nrf1 or Nrf2 proteins were incubated with the probes, and the protein-DNA complexes and free probes were resolved by electrophoresis. (E) The sequences of the wild-type (W) and mutant (M) oligonucleotides are shown. The mutation sites of the sequences are underlined. (F) Nrf2 and MafG proteins were incubated in combination in the presence or absence of a 200-fold molar excess of unlabeled competitor DNA. The open arrowheads indicate Nrf1/MafG heterodimer complexes, the solid arrowheads indicate Nrf2-MafG heterodimer complexes and the arrows indicate MafG homodimer complexes.
# (§4) EMSA was performed in accordance with a method known in the art. […]
# [3] = biological target: T1, Nrf1 CT (G341-K741)/MafG 1-123 heterodimer (Mus musculus, UniProt Q61985;O54790 Q61985:341-741,O54790:1-123); experiment: EMSA; room temperature 20 min; probe boundaries in FIG. 6E may differ from the reporter insert; conditions: tags: 6xHis on each; E. coli; label: 5' biotin (EMSA)
# Description: as §3, §4
# [4] = biological target: T1, Nrf1 CT (G341-K741)/MafG 1-123 …; experiment: EMSA; slightly weaker than for Nqo1 ARE; room temperature 20 min; probe boundaries in FIG. 6E may differ from the reporter insert; conditions: tags: 6xHis on each; E. coli; label: 5' biotin (EMSA)
# Description: as §3, §4
# T1 sequence (Q61985 341-741, chain 1 of 2): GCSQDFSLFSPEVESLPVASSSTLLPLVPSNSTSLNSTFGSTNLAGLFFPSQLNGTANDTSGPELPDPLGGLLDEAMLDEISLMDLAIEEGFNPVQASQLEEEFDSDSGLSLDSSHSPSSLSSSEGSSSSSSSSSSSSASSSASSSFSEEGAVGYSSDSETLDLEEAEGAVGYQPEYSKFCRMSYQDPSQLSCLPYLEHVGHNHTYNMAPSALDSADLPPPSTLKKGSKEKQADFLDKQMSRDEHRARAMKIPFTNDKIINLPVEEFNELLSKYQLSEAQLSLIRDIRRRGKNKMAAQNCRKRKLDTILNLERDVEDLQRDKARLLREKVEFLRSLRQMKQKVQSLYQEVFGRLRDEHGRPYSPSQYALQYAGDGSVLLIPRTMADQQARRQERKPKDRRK
# T1 sequence (O54790 1-123, chain 2 of 2): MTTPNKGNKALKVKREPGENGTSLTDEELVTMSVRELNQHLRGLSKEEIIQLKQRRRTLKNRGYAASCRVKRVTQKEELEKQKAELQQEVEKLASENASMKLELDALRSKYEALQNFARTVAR
# Sequence of MafG 1-123 homodimer (O54790 1-123, one chain of several): as the sequence (O54790 1-123, chain 2 of 2) above
Molecule,luciferase activity compared to solvent [1],luciferase activity compared to solvent [2],binding result (MafG 1-123 homodimer),binding result [3],binding result [4]
CC(C)C[C@@H](C=O)NC(=O)[C@H](CC(C)C)NC(=O)[C@H](CC(C)C)NC(=O)OCc1ccccc1 [MG-132] (Cbz-Leu-Leu-Leu-aldehyde),drastic increase of luciferase activity,drastic increase of luciferase activity,–,–,–
B1,–,–,binds,binds,–
B2,–,–,binds,binds,–
B3,–,–,–,–,binds
